Assay results published in US8030325B2, “Biosynthetic gene cluster for the production of a complex polyketide” (Wyeth LLC, priority 2004, dated 2011).

Test system: mesencephalic dopanergic neuron cultures
Experiment: High-affinity 3H-DA uptake in ventral mesencephalic cultures, with or without MPP+ exposure
Format: cell-based, rat
Details: for protection against MPP toxicity (3H-DA uptake): pre-treatment 1 hr or 24 hr, MPP+ 1 hr, recovery 24 hr or 48 hr
Experimental: Ventral mesencephalic cultures were prepared from E15 rat embryos and maintained for […] before experimentation according to the method of Pong et al., J Neurochem.
Cultures were then exposed to 10 μM 1-methyl-4-phenylpyridinium (MPP+) for 1 hr, in the presence of drug. After the 1 hr exposure, media was changed 3×, and fresh drug was added for an additional 24 hr or 48 hr.

CC/C1=C\CC(/C(C)=C/C(C)C(C)O)OC(=O)C2CCCCN2C(=O)C(=O)C2(O)OC(CCC2C)CC(O)C(C)C(O)CC(O)CC(O)/C(C)=C/C(C)CC(C)C1O (stereo not drawn) [meridamycin]
protection against MPP toxicity (3H-DA uptake): partial, but significant protection

B1: GDNF: glial-derived neurotrophic factor, control (protein, UniProt P39905 78-211, looked up)
Glial cell line-derived …: SPDKQMAVLPRRERNRQAAAANPENSRGKGRRGQRGKNRGCVLTAIHLNVTDLGLGYETKEELIFRYCSGSCDAAETTYDKILKNLSRNRRLVSDKVGQACCRPIAFDDDLSFLDDNLVYHILRKHSAKRCGCI
DA uptake in normal mesencephalic dopanergic neuron cultures (normal cultures, no MPP+): enhanced DA uptake
protection against MPP toxicity (3H-DA uptake): partial, but significant protection
